Source: US20240287163A1 (Chugai, published 2024)
Numbering of substitutions follows the chain as printed.

T1: recombinant human C1r2s2 tetramer (human, UniProt P09871 16-688; P00736 18-705)
T1 construct: C1s and C1r co-expressed in HEK293 and purified from the supernatant as tetramer; also called hC1r2s2
T1 chain 1: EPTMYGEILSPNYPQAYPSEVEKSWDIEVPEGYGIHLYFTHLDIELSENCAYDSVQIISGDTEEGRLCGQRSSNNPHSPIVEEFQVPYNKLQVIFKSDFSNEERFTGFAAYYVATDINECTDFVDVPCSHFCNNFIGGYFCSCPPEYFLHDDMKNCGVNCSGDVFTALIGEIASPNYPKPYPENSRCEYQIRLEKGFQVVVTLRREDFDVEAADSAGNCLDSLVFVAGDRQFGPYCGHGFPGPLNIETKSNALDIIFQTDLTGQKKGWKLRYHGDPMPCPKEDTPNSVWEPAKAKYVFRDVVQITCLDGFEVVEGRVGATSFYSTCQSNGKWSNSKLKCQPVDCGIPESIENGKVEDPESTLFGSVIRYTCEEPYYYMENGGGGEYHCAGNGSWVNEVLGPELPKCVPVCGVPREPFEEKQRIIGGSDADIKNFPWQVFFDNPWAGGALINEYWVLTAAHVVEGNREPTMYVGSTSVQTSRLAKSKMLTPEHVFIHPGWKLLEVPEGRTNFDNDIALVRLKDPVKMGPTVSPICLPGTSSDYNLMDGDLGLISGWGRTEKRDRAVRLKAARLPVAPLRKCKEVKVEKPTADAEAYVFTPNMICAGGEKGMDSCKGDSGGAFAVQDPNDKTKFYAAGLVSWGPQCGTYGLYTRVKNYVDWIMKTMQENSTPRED
T1 chain 2: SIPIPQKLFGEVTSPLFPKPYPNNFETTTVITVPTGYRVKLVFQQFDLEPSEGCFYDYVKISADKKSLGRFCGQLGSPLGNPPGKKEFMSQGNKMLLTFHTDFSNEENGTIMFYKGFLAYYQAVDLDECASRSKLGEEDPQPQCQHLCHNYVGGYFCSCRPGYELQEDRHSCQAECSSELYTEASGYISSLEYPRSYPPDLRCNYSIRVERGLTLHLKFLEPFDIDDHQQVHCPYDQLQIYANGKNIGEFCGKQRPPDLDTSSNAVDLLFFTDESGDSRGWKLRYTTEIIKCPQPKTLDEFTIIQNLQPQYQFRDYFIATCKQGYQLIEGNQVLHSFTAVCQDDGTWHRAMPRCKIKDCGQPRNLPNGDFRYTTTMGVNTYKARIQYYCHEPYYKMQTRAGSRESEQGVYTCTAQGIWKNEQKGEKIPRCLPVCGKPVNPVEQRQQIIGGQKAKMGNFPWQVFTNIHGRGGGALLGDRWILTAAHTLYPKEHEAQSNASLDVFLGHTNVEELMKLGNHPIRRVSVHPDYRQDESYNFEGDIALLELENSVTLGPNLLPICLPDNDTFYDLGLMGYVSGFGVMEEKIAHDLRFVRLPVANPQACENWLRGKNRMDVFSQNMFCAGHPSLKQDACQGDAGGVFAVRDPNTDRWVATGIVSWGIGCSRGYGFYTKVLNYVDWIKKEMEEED

T2: recombinant cynomolgus C1r2s2 tetramer (cynomolgus monkey, limits assumed)
T2 construct: also called cyC1r2s2; monkey C1r2s2
T2 chain 1: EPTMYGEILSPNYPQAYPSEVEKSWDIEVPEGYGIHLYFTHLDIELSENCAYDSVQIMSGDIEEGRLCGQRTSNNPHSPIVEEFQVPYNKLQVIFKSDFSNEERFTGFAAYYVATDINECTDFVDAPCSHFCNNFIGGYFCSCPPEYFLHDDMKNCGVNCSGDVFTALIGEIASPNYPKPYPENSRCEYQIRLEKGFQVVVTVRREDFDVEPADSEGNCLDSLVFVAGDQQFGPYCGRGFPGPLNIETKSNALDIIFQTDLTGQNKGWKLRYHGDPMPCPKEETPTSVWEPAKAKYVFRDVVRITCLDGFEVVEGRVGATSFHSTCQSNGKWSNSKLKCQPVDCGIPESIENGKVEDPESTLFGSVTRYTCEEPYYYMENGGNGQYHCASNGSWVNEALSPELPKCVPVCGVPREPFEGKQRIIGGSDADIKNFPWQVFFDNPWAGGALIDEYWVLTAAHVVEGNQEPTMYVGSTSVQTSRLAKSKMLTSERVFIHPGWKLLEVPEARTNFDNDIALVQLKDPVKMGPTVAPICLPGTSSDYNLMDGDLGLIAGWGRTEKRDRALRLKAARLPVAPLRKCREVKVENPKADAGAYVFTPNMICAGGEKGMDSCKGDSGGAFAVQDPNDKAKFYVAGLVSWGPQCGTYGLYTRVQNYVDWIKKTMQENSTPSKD
T2 chain 2: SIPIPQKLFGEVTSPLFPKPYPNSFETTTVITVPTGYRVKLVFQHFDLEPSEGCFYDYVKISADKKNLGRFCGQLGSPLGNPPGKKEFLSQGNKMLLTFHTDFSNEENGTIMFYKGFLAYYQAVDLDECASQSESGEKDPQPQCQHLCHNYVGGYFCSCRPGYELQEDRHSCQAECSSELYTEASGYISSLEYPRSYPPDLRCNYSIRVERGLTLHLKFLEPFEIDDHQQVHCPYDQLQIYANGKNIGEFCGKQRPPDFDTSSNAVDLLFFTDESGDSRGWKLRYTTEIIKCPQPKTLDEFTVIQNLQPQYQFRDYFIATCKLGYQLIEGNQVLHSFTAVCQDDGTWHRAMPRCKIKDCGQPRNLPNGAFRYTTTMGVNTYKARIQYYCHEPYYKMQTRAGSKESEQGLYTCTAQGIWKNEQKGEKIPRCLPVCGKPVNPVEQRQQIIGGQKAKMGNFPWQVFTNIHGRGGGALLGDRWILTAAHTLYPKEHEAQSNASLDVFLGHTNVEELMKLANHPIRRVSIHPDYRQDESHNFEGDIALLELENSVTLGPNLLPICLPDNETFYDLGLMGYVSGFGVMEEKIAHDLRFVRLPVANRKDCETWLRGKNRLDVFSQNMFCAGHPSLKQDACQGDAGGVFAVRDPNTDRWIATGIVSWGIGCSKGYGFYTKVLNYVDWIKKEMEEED

B1: COS0637pHv8-TT91R (antibody, human IgG1)
heavy: QVQLVESGGGVVQPGRSLRLSCAASGFTFSAYAMNWIRQPPGKGLEWIGLIYGSGHEFYASWAEERVTISVDTSKNQFSLKLSSVTAADTAVYYCARGRSKNYNSDFHLWGQGTLVTVSSASTKGPSVFPLAPSSKSTSGGTAALGCLVKDYFPEPVTVSWNSGALTSGVHTFPAVLQSSGLYSLSSVVTVPSSSLGTQTYICNVNHKPSNTKVDKRVEPKSCDKTHTCPPCPAPEYLGGDSVFLFPPKPKDVLMISRTPEVTCVVIDVSHEDPEVKFNWYVDGVEVHNAKTKPREEQYNSTYRVVSVLPVLHRDWLNGKEYKCKVSNKALPKPIEKTISKAKGQRREPQVYTLPPSREEMTKNQVSLTCLVKGFYPSDIAVEWESNGQPENNYKTTPPVLDSDGSFFLYSKLTVDKSRWQQGNVFSCSVLHEALHAHTTRKELSLSP
light: DIQMTQSPSSLSASVGDRVTITCQANQILHDKKNLAWYQQKPGQPPKLLIYGASTLESGVPSRFSGSGSGTDFTLTISSLQPEDFATYYCHGEFSYSSADLNTFGQGTKVEIKRTVAAPSVFIFPPSDEQLKSGTASVVCLLNNFYPREAKVQWKVDNALQSGNSQESVTEQDSKDSTYSLSSTLTLSKADYEKHKVYACEVTHQGLSSPVTKSFNRGEC
notes: also called COS637pHv8-TT91R
B2: COS0637pHv17-G1A3FcgSil+LowpI (antibody, V domains shown)
VH: QVQLVESGGGVVQPGRSLRLSCAASGFTFSAYAMNWIRQPPGKGLEWIGLIYGSGHEFYASWAEERVTISVDTSKNQFSLKLSSVTAADTAVYYCARGRSKNYNSDFHLWGQGTLVTVSS
VL: DIQMTQSPSSLSASVGDRVTITCQAHEILHDKKNLAWYQQKPGQPPKLLIYGASQRESGVPSRFSGSGSGTDFTLTISSLQPEDFATYYCHGEFPHSSADLNHFGQGTKVEIKR
notes: VH 24, VL 55, CH 45, CL 23
B3: COS0637pHv8-G1A3FcgSil+LowpI (antibody)
heavy: QVQLVESGGGVVQPGRSLRLSCAASGFTFSAYAMNWIRQPPGKGLEWIGLIYGSGHEFYASWAEERVTISVDTSKNQFSLKLSSVTAADTAVYYCARGRSKNYNSDFHLWGQGTLVTVSSASTKGPSVFPLAPSSRSTSESTAALGCLVKDYFPEPVTVSWNSGALTSGVHTFPAVLQSSGLYSLSSVVTVPSSSLGTQTYICNVNHKPSNTKVDKRVEPKSCDKTHTCPPCPAPELRRGPSVFLFPPKPKDTLMISRTPEVTCVVVDVSQEDPEVQFNWYVDGVEVHNAKTKPREEQYNSTYRVVSVLTVLHQDWLNGKEYKCKVSNKALPAPIEKTISKAKGQPREPQVYTLPPSQEEMTKNQVSLTCLVKGFYPSDIAVEWESNGQPENNYKTTPPVLDSDGSFFLYSKLTVDKSRWQEGNVFSCSVLHEALHAHTTRKELSLSP
light: B1 light
notes: built from VH+CH and VL+CL
B4: COS0637pHv15-G1A3FcgSil+LowpI (antibody, V domains shown)
VH: B2 VH
VL: B2 VL with H26N, Q55T, R56L, P95S, H96Y, S97H, H103T
notes: VH 24, VL 59, CH 45 (G1A3FcgSil+LowpI), CL 23
B5: COS0637pHv16-G1A3FcgSil+LowpI (antibody, V domains shown)
VH: B2 VH with A33T
VL: B2 VL
notes: VH 36, VL 55, CH 45, CL 23
B6: COS0637pHv21-G1A3FcgSil+LowpI (antibody, V domains shown)
VH: B2 VH
VL: B2 VL with G52S, Q55I, R56L, P95S, S97G, A99G
notes: VH 24, VL 47, CH 45, CL 23

Legend:
[1] = target: T1, recombinant human C1r2s2 tetramer; test: SPR (Biacore T200), 37 C, pH 6.0; hC1r2s2 captured by IPN009, antibody as analyte
Method: (§1) The binding property of each sample at pH7.4 and pH6.0 was determined at 37° C. using BIACORE® T200 instrument (Cytiva). […] 20 mM ACES, 150 mM NaCl, 1.2 mM CaCl₂, 1 mg/mL BSA (not containing IgG), 1 mg/mL CMD, 0.05% Tween® 20, 0.005 w/v % NaN₃, pH7.4 or pH6.0 buffer was used as the running buffer. […] The antibody solution was added thereto at 30 μL/min for 120 seconds, the running buffer was then added at 30 μL/min for 180 seconds, and the dissociation constant (KD) of each antibody for hC1r2s2 and cyC1r2s2 was calculated. […] The sensor surface was regenerated every cycle, using 3 M MgCl2 (prepared in-house). The KD value was calculated using BIACORE® T200 evaluation software version 2.0 (Cytiva). The binding strengths under each pH condition were compared by dividing the KD value at pH6.0 with the KD value at pH7.4.

[2] = target: T1, recombinant human C1r2s2 tetramer; test: SPR (Biacore T200), 37 C; ratio of KD at pH 6.0 to KD at pH 7.4
Method: as §1

[3] = target: T2, recombinant cynomolgus C1r2s2 tetramer; test: as above
Method: as §1

[4] = target: T1, recombinant human C1r2s2 tetramer; test: SPR (Biacore T200), 37 C, pH 7.4; hC1r2s2 captured by IPN009, antibody as analyte
Method: as §1

[5] = target: T2, recombinant cynomolgus C1r2s2 tetramer; test: SPR (Biacore T200), 37 C, pH 7.4; cyC1r2s2 captured by IPN009, antibody as analyte
Method: as §1

[6] = target: T2, recombinant cynomolgus C1r2s2 tetramer; test: SPR (Biacore T200), 37 C, pH 6.0; cyC1r2s2 captured by IPN009, antibody as analyte
Method: as §1

Binder | Kd [1] [nM] | KD (pH 6.0)/KD (pH 7.4) [2] | KD (pH 6.0)/KD (pH 7.4) [3] | Kd [4] [nM] | Kd [5] [nM] | Kd [6] [nM]
B1 | 12.5 | 50.2 | 67.5 | 0.249 | 0.345 | 23.3
B2 | 32.9 | 143 | 421 | 0.23 | 0.252 | 106
B3 | 19.3 | 71 | 83 | 0.272 | 0.365 | 30.3
B4 | 318 | 797 | 226 | 0.399 | 0.492 | 111
B5 | 29.2 | 161 | 465 | 0.181 | 0.196 | 91.2
B6 | 31.3 | 120 | 182 | 0.26 | 0.346 | 62.9
